IntAct's records for PubMed 31515488

B1: Emerin (Homo sapiens), P50402 (parent)
chain: MDNYADLSDTELTTLLRRYNIPHGPVVGSTRRLYEKKIFEYETQRRRLSPPSSSAASSYSFSDLNSTRGDADMYDLPKKEDALLYQSKGYNDDYYEESYFTTRTYGEPESAGPSRAVRQSVTSFPDADAFHHQVHDDDLLSSSEEECKDRERPMYGRDSAYQSITHYRPVSASRSSLDLSYYPTSSSTSFMSSSSSSSSWLTRRAIRPENRAPGAGLGQDRQVPLWGQLLLFLVFVIVLFFIYHFMQAEEGNPF
partner: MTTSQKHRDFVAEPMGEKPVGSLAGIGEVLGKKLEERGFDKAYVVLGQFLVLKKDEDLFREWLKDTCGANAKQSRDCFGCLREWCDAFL
B2: TNF receptor-associated factor 2 (Homo sapiens), Q12933 (parent)
chain: MAAASVTPPGSLELLQPGFSKTLLGTKLEAKYLCSACRNVLRRPFQAQCGHRYCSFCLASILSSGPQNCAACVHEGIYEEGISILESSSAFPDNAARREVESLPAVCPSDGCTWKGTLKEYESCHEGRCPLMLTECPACKGLVRLGEKERHLEHECPERSLSCRHCRAPCCGADVKAHHEVCPKFPLTCDGCGKKKIPREKFQDHVKTCGKCRVPCRFHAIGCLETVEGEKQQEHEVQWLREHLAMLLSSVLEAKPLLGDQSHAGSELLQRCESLEKKTATFENIVCVLNREVERVAMTAEACSRQHRLDQDKIEALSSKVQQLERSIGLKDLAMADLEQKVLEMEASTYDGVFIWKISDFARKRQEAVAGRIPAIFSPAFYTSRYGYKMCLRIYLNGDGTGRGTHLSLFFVVMKGPNDALLRWPFNQKVTLMLLDQNNREHVIDAFRPDVTSSSFQRPVNDMNIASGCPLFCPVSKMEAKNSYVRDDAIFIKAIVDLTGL
B3: Proto-oncogene serine/threonine-protein kinase mos (Homo sapiens), P00540 (parent)
chain: MPSPLALRPYLRSEFSPSVDARPCSSPSELPAKLLLGATLPRAPRLPRRLAWCSIDWEQVCLLQRLGAGGFGSVYKATYRGVPVAIKQVNKCTKNRLASRRSFWAELNVARLRHDNIVRVVAASTRTPAGSNSLGTIIMEFGGNVTLHQVIYGAAGHPEGDAGEPHCRTGGQLSLGKCLKYSLDVVNGLLFLHSQSIVHLDLKPANILISEQDVCKISDFGCSEKLEDLLCFQTPSYPLGGTYTHRAPELLKGEGVTPKADIYSFAITLWQMTTKQAPYSGERQHILYAVVAYDLRPSLSAAVFEDSLPGQRLGDVIQRCWRPSAAQRPSARLLLVDLTSLKAELG
partner: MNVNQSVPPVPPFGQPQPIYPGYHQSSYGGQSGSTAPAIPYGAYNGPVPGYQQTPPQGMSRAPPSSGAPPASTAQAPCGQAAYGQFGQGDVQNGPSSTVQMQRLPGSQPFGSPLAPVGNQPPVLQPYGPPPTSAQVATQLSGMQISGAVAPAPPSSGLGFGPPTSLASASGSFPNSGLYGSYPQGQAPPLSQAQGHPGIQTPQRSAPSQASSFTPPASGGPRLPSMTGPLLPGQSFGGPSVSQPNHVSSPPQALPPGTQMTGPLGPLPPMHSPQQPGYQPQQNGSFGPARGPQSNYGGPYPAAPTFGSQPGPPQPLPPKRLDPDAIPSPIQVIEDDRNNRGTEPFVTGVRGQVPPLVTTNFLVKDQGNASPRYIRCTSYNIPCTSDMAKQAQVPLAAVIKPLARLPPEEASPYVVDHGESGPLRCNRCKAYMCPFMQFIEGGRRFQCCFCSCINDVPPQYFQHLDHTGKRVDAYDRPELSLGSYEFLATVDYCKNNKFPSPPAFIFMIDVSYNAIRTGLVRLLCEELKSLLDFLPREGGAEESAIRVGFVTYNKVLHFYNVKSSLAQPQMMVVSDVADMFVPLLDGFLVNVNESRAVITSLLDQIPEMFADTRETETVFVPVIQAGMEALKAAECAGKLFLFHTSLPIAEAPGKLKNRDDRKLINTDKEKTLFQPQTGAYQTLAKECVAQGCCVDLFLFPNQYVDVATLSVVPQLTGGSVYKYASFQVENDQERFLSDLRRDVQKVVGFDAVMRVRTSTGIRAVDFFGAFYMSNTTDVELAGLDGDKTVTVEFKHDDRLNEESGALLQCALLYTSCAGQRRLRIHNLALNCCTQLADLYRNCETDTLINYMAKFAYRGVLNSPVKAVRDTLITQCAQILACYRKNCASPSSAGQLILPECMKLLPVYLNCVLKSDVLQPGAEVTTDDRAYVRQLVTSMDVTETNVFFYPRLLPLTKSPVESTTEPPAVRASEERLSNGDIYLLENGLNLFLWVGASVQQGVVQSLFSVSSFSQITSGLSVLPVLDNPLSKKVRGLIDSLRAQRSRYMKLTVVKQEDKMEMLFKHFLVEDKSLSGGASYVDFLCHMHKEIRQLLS
B4: Protein FAM9B (Homo sapiens), Q8IZU0 (parent)
chain: MAAWGKKHAGKDPVRDECEERNRFTETREEDVTDEHGEREPFAETDEHTGANTKKPEDTAEDLTAKRKRMKMDKTCSKTKNKSKHALRKKQLKRQKRDYIHSLKLLNVLEEYITDEQKEEEEEEGEEEELIRIFQEQQKKWQQYRSVRRERLKEMKLLRDQFVKALEDFEDLCDRVFSDEDSELDN
partner: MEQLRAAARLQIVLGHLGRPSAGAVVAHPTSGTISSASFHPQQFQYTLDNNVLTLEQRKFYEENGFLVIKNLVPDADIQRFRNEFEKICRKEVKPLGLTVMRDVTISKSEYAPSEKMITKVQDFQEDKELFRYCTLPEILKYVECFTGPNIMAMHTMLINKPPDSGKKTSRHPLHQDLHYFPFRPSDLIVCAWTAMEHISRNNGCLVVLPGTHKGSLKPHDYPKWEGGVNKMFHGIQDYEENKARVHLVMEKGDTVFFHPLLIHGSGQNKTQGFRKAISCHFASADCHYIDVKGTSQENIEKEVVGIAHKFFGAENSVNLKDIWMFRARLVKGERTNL
B5: Protein FAM9B (Homo sapiens), Q8IZU0 (parent)
chain: B4 chain
partner: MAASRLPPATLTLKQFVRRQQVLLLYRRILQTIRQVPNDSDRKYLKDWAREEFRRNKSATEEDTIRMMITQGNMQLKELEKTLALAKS
B6: Microtubule-associated tumor suppressor candidate 2 (Homo sapiens), Q5JR59-3 (parent)
chain: MGHCCCKPYNCLQCLDKTNESALVKEKELSIELANIRDEVAFHTAKCEKLQKEKEELERRFEDEVKRLGWQQQAELQELEERLQLQFEAEMARLQEEHGDQLLSIRCQHQEQVEDLTASHDAALLEMENNHTVAITILQDDHDHKVQELMSTHELEKKELEENFEKLRLSLQDQVDTLTFQSQSLRDRARRFEEALRKNTEEQLEIALAPYQHLEEDMKSLKQVLEMKNQQIHEQEKKILELEKLAEKNIILEEKIQVLQQQNEDLKARIDQNTVVTRQLSEENANLQEYVEKETQEKKRLSRTNEELLWKLQTGDPTSPIKLSPTSPVYRGSSSGPSSPARVSTTPR
partner: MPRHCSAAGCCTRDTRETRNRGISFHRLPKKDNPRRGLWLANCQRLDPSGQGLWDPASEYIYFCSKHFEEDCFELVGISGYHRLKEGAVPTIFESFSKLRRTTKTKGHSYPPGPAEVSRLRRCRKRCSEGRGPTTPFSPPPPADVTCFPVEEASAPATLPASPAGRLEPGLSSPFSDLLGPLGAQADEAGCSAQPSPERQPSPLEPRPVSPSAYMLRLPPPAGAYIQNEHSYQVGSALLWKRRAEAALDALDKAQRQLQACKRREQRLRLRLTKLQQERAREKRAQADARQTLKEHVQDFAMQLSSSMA
B7: UPF0688 protein C1orf174 (Homo sapiens), Q8IYL3 (parent)
chain: MRSRKLTGAVRSSARLKARSCSAARLASAQEVAGSTSAKTACLTSSSHKATDTRTSKKFKCDKGHLVKSELQKLVPKNDSASLPKVTPETPCENEFAEGSALLPGSEAGVSVQQGAASLPLGGCRVVSDSRLAKTRDGLSVPKHSAGSGAEESNSSSTVQKQNEPGLQTEDVQKPPLQMDNSVFLDDDSNQPMPVSRFFGNVELMQDLPPASSSCPSMSRREFRKMHFRAKDDDDDDDDDAEM

Variants of: B1
Settings: with baf_human BANF1, O75531

Variant | effect of a mutation on the interaction
P183T | with no effect

Variants of: B2
Settings: with traf1_human TRAF1, Q13077
traf1_human TRAF1, Q13077, sequence (Q13077 whole entry): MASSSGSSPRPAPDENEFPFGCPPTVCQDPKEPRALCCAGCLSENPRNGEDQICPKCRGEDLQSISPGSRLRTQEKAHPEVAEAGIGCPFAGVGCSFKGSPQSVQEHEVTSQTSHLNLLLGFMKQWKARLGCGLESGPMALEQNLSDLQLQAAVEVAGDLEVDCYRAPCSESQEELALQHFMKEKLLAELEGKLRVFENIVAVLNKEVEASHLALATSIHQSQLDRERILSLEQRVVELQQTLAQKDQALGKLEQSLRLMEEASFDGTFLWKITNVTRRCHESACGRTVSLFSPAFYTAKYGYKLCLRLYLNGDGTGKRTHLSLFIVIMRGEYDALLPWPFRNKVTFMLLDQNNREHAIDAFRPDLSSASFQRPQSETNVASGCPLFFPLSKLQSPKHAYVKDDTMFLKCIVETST

Variant | effect of a mutation on the interaction
D488N | with no effect

Variants of: B3
Settings: with sc24c_human SEC24C

Variant | effect of a mutation on the interaction
A123T | disrupting interaction strength
A105S | with no effect

Variants of: B4
Settings: with pahx_human PHYH

Variant | effect of a mutation on the interaction
R23H | with no effect

Variants of: B5
Settings: with lyrm2_human LYRM2, Q9NU23

Variant | effect of a mutation on the interaction
R23H | with no effect

Variants of: B6
Settings: with thap7_human THAP7, Q9BT49

Variant | effect of a mutation on the interaction
A89V | with no effect

Variants of: B7
Settings: with ikzf1_human IKZF1, Q13422
ikzf1_human IKZF1, Q13422, sequence (Q13422 whole entry): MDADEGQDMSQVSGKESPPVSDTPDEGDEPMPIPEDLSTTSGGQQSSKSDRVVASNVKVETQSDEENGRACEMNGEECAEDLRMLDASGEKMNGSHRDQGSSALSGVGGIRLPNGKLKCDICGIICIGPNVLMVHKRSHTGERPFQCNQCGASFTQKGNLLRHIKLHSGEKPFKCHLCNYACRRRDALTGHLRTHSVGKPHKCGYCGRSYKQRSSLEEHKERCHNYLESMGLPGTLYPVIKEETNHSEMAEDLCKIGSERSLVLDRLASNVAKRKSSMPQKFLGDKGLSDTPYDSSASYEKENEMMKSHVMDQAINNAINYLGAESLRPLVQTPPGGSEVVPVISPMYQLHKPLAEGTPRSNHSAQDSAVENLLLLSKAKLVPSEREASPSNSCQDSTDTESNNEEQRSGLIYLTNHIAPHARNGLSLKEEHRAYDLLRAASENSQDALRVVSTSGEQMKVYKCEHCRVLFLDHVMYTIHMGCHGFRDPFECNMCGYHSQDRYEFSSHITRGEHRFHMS

Variant | effect of a mutation on the interaction
V195M | with no effect
R131C | with no effect
S82A | with no effect
A81T | with no effect
